According to the domain aggregation screens of Martell et al. (2025):

Test: soluble fraction after stress (log2 fold change); higher = more stays soluble; pooled small domains, quantitative proteomics
Settings: stress: 50 degC
Summary of the method: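 Custom libraries of small protein domains were pooled and measured in a high-throughput format, with quantitative proteomics as the read-out. Each library was stressed at 50°C. The value is the log2 fold change in the amount of each protein that stays soluble after stress, used as a measure of aggregation propensity; higher values mean more of the protein stays soluble.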

Sequence | soluble fraction (log2)
HMDELNFGNFEGTRIFVQRTARKKSIALSIRDGTIVILAPRHIPNQEIQELITTNTDWIRAKLSQHAETKR | -1.75
HMSEFGENLKKLRTARDLTQQELGAKVGLSKAVVSKYENGLGYPTFDVLIRIAAYFGVTTDYLLGV | -0.442
HMITEQEFQRVAAYVKNKAGINLNEKKVLVQGRLDSYMQRKGYSSYDEFMDRVERFPTGPEAEDLMNALTT | 0.0575
HMAKRKTEKTSVLEEIDGVGKARARALLARFGGLSGVKAASPEELRTVRGITPEIAENIRRYFQ | 0.121
HMPPDIKVVGVTVASDPRASFAMLSSNGKTLSYRVNDLIEGTEYHLIKVEAAAITIATAGGQSTQIAF | -0.585
HMYAGTVTQVKNNKVMLEFDGETVNVGDQFFILNSDGKKVAIVEITAAKNKKALANVLKGKAVVDGTTQAK | -0.111
HMLQARKFTHIQGYEFEAEFLRTNGEFVELQDPQGRKKWFPISNFIQDDKDFIKEQAGNLSS | -0.0494
HMNEDYFTIAGYASLRGVNIDTSKANMLGRKATKLSREYGYDIGKVTDTRFGKVNSYHLDILKSIFEF | -0.477
HMNVNFVQANLANLPNIQAIYQKGNEMLNDMKRGEAREIDEAYSRVDNGVGTEKDFKVLLSFRDKIIAAMQ | 0.362
HMDTNRIIGNKIYQLRRSINMTQQELAEKVGISVTFLSEIENGRKSMSVDTLIKLSKGLQVSLDTIVF | -1.46
HMVNAVKFAIEKMPYKYSSLLTLKYVMGYSGKEIAEITGLSETNVRQQLLKGRKLLESMLEE | -2.43
HMKQIEEIIARYTNENTPLMMILSDVQREYGYIPLDVQELISEKTGIPVAEIYGVVTFYSFFSL | -0.572
HMSKSIEEIYDEAIRSLANEEYDSAKKLFSYLIDNFSDPEKLPLSLFWLGEIEFSSSNFDQSKIHYIE | -0.0445
HMAKRINVKLIMELSAGGLTQNEIASSRHFSKTSVNLVLKTARELNVSAADLREMSPEEAYRLFFPEK | -1.43
HMSMEQAKAEEIEKLGDNAPERLQAAALFAEKFFPQDVMDAVYKITETADGVRAIEHIMQTVK | -1.28
HMEVPTGNHIRRWRKSLDITQVKLSSLSGVAQSIIAKIENETVDPRVSTLRKLVEALSRFENP | -1.89
HMETTMVEIKAEFTIRNRLDIPAMMEKAGYKDRGEFLSVLEKITGNYNWDRDVKKGDTFMVPSKLA | -0.777
HMKPDSEFTSQDLWQNDLAGTGSAAYRRDKMGALLGIGYGNAKRFLERLNSYGVTRSEFDEALAQLGE | -0.0612
HMSTQYKTGHYKTTDALNLRASYSTSSNVLLTIPKGKTIVVTRVHNNEWGQVEYNGKTGWIYLEYTAYTES | 0.0697
HMQDVKRYLVNSNQLNVRTGPGKEFEISESLNKGDAVTLLHKESNGWWEVITSTGQGYVYSSMLTKDPW | -0.525
HMYQRLPFSFANRYKMVLESQHPERAPILYYVEPLKSAAIIEVSRVVKNGFTPQAITLDEFDKKLTDAYQR | -0.908
HMQSYSYYDFQKALQNKTVESVIIEPDKTVPTGTLQIQLKGDTKEELNVSDVTEVEELLQSYDVDYKLRSV | 0.131
HMHNNTITLNKKTYVYTASGKKMSKYLGYTYINKGTTLNYYGTKNIKGKTFYYIGDHAYVNAANVGKVTN | -1.92
HMLNTLGADIRALRKARGLTLAELAQTLGRSVGWLSQVERDMSEPGINDLRDLARALDVSISSLFG | -1.13
HMPREVKLPPDLLDALEASPEAKAFFLQLSYTHQKEYAQWIEEAKQEATRQRRLEKTVQMLLEGRRT | -0.0798

Sequence | soluble fraction (log2)
HMTSVAGIERFLASGAIKGMGAATAKLIVEHFGADTLNMLDMYPERLTEIKGIGPKKATAIIEGYRELS | -0.751
HMGQISDEETLKTVASRIIDANPDEARKYRSGKTGLLGFFVGQVMKATQGEANPKLASRIVKELLE | -0.0262
HMNDLVTWDRYKIELGDTLSEIAQKLVTRVDILKTVNQIQGTRIIAGNSLMVPRTTDTNVLTYL | -0.174
HMEGSRASMDGQVPGKTSYLEWLARQPAQRQDQVLGAERGRLFRAGEIDLADMFTDKGEWISLERLKQLS | 0.221
HMSAPRRGETTAASLNLRAGPATDADILAQLPERTPLRVLQEDGEWLRVETHGNEGFVHRQFVAIPGDEP | 0.218
HMETLSVRERMTSIISLLNKHEDIEFSKLFNISEGRLGVVVTFLALLELVKESLVDVIQNQPMSKLYIGKK | -0.311
HMNSEFPFNGGRIVDNVPANRLQIFFDEKPDADVRTRLKQNGFRWAPNSGAWQSYRHGYTLDWARREFNA | 0.134
HMFDVRWEQGYALAAAYAQEYGNLDVPRDYKTADGKKLGRWIQSQEQAYEQKKLSEEQISRLEMIGMQWG | -0.604
HMSTVEKDSELGGNFRIASYPTGKGQISEAIRSMIVRAKQVGVNIRLNTEATEEPLRALAPNAVILATG | 0.0325
HMSSSTFVGRVAVITIGEARQNSPAEARFKDRHGTTHYVMVEPMEDVVFKQGDKVLLVESAGATFKVIEPA | -0.585
HMATVGENIRRYRKAQNLSAAKLAEKVGLTQGAILHYERGIRTPGISQLEKIAHALNVSPRM | -0.0581
HMSAEVEVPDVVGRQVALAVQLIETKKLRVNVAETYDAKVPPGQVISQSPEAGMKVKEERVITIYVSR | -0.167
HMADPRFHSEIMLSKIESLLSGKADSDVSNYSIQGRSLTKMSLQELMDARESYDGLVKSEKAKLDAKY | 0.0495
HMIMGTIEKRGPFSFRIGVQVRLPDGSWEWIRDTIHVSPDLSARAARKQAEMALARLEADVYEGKRKPD | -0.878
HMDSITEADLLRWAHALSGIARTGLGFTESRYERERYEEVLAVAADILAASSRSHDRAALVDEWLKMVGV | -1.8
HMTSTEQQIEQFIGTLVSLGGSAGNQRLLEALGWQDSIYQRVKQQLIDDGRIRPGRGRGGSVVLAE | -0.074
HMEQGDTQQEIREKILNLLADGERHMITELKNIRTDQPIDDDKIVGKTLKTLLDEEEVYMDGSYIQLNG | 0.259
HMRGINDLSLVDPQGRIRKDGEQYVVAFGRHKGKEISQIISQDPSYLNWLLSPKGIEDDATRELIRTQYS | -0.0415
HMEDWTPERFVGAFVSGGPALRDEILLAATKDLSHAQATRLLKLAEARGLVHRSQPGPSERVRFVVARK | -0.258
HMTITIGNSDGGYMKMGADGFEVRFSGSDGGNHYAKMYYNNDGWARLTLGSYGEEKARIDSDGMIQTR | -0.113
HMNEKLRNYIDTLFEHAPTTVRAVELKEEMFQNLTDKYNDLIAQGKSEEAAFNIAVASIGDVDSLIAGLS | 0.219
HMSDPELAIPRVVGLSGNDAQAALVKAGFSAVTVVTVKNSEVTSEQVTHVVPAEGAKAKASTPVTVVVSSS | -0.0196
HMPIPIESEISRSPGQSIYAFVQQHYGRSGRSPADMRALVGLILRLNRQIRTPLLIPFGLVVVRPT | -0.0619
HMAHILDLMELKQILRLHMDGLSNRRISDTLGIHRNTINSYVSQFKASKHGIEELLKLSDYELAQLFP | -2.26
HMRKIKEVLRLKFETGFSHERIAAAVGVSKGAVTKYVQRAVAAGLGWPLAPERDDAALEALLFPH | ≥ 0.62

Sequence | soluble fraction (log2)
HMGIIQAQIPGLVSRLFVKKGDKVAVNQRLFILEAMKMENEIDSPIQGMVEKIHITTGSKVEKGDLIMEIV | -0.323
HMVPLSMLTEGQIFRGQVLDITSQGIKIQLNPEQILFARLGEQVELNIGQQMAFQVRENKGDQLIIHPMQN | 0.0382
HMSKTKDVLVQLMAERGLTQSDIARALSVRPQAVQQWVSGKTRPTGKNLEALAEFLQLPPAVIVHGP | -0.00766
HMKMAKTIKEIAEEIGVSKQAVFKKIKQVPLSTEIEKFISTVDGKKLVSVDGENLIKQAFQR | 0.325
HMPPTEQVYRSHVPPQYDGFPIEKYFTTRFSYQDVEEWSRQILAGKIEVNGKTALIGQILSASDLTVTRA | -0.855
HMKADTSPEAQKKIIAAFEPYSVNKDQIEKLIQRRIDSITPAQVIRLRKILASLKDGMSSPEDWFE | 0.0361
HMTEKIEWYKEVLDLEPNSKIFFPLAKMLEKEGELEEARRVLAEGVSRHEEFLEARLFYISVLSRL | -0.169
HMTETFVLNLRQPIAAAPVLPGYRVARTDEQTLEVEVSKDQNLNEIFTALSALGVEVLSMRNK | -0.12
HMNGARALAGAIAEAIRKQVYRVNERLPAERELASHYDVSRGTLRSALALLEQEGLVTRKVGSGTFVMPP | -0.438
HMEFQISLAAARVNANMTQEDTARAMKVSKTTIVNWEKGKVIPGIPEVEMMSRLYGIPQDYIFLP | -3.2
HMEKVTAPMPGVINSIVKNVGDTVKRGDVVLILEAMKMENEIVAPKEGKIASINVAKGASVNAGDVLFSI | 0.294
HMNELGSLIKRKREELGLSQEELARILGYKHKSSINKIELGLADVPRTKVPAFAKALGMTPVEFS | 0.0771
HMKGVSFEEIERAVRTAQNPEADETAQQHAGMVFSRMEGNELFDKLVQSSSTIGKKITGLMDYYL | -0.0889
HMKDLQAISERMEEIISFAKANDNEISLFIVQDIIKNKKTGIDEDLLNMALYQIKEQGIKVLPA | -0.0793
HMQNEVMPYSTFLSEVNSGNVTKVKIDHEQLTGTLKSGKQFTTYILDAATLPSIVAEKGVEVEVVPP | 0.357
HMRGDQLREHLLWTAKDVFLELGFERASMDAVAARAETSKRSLYAHFESKEKLFLAVIDLVRG | -3.67
HMQELKWERNYKLVQDYIKQYGVLPSKNTKYANVSIGRWLTNQHELVKEDNLAPERFEKIKELDT | -0.233
HMNISALKGKIGEVYLKIPAHNAGKGKVLISLKGTHHELYAITRSGEDISSGEFVKVIEIEDEILVVEK | -0.58
HMKPPVQVIGKAVVTASSLNVRTGPGTGHGIITSLPRNTEVELLEQQGEWYKIRRGSTVGYVHGGYLKIN | -0.00404
HMTLYITDQMRKILDYVATNQEIDEKAVMDLLSIQRTRAYLIAKKMTDIGLLQVQGRGKTKTYRLAARS | -1.93
HMRPTVNETQIREVFRSILGREVDPEGLRHYLGQAAKGWSIDQIRADVNNSQEAHQRRAELARQAEELK | 0.181
HMGEPLTVVAAAGGDRLDRWLAGQLAGRSRAEIQRWIEAGQVTLAGRSLKASYRLSAGDAIDVAIPPPE | -0.129
HMQNRIVNTTQGLAADKRGLLVADETGHTTRPGIFASGDVVNGARTVVEAVAHSKIVAESMHQYMQ | ≥ 0.62
HMYGLSFLIGFTVVDRTYGDIGKVTAIDDSTVNTLMAVGDRLIPAQEAFITKIDNTKKIIYTQLPEGLL | 0.177
HMEKDKGTILKEARIKKGLTQEQLANNINYTRQYISKWENNISLPKDIQTLKKISNLLSIPLKELLPEDYL | -0.109
